In the supplement of paper PMC10065799, “High-throughput profiling of sequence recognition by tyrosine kinases and SH2 domains using bacterial peptide display” (eLife, 2023):

Assays:
[1] = molecular target: Grb2 SH2 (UniProt P62993); assay: SH2 binding enrichment of the phosphorylated peptide, bacterial display (enrichment ratio); higher = better substrate or ligand; peptides without Tyr show the background
[2] = molecular target: c-Src SH2; assay: as above
[3] = molecular target: SHP2-C SH2; assay: as above
[4] = molecular target: Fyn (UniProt P06241); assay: phosphorylation enrichment, bacterial display (enrichment ratio); higher = better substrate or ligand; peptides without Tyr show the background
Sequence of Fyn (P06241 whole entry, looked up): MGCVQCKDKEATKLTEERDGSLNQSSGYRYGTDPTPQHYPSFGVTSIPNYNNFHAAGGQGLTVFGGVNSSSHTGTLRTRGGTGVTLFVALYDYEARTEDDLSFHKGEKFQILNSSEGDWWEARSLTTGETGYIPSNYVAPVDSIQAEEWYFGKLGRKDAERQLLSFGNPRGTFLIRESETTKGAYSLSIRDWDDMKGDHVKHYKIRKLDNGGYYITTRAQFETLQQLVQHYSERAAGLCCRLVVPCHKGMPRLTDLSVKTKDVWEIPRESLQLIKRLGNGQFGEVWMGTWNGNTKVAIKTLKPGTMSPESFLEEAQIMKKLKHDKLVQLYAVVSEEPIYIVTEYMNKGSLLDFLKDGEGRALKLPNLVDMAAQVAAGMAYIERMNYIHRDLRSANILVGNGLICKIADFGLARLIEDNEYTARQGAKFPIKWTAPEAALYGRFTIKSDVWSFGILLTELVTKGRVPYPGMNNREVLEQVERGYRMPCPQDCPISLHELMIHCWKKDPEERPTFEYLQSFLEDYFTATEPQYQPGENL

[5] = molecular target: FGFR1 (UniProt P11362); assay: as above
[6] = molecular target: EPHB1 (UniProt P54762); assay: as above
Sequence of EPHB1 (P54762 whole entry, looked up): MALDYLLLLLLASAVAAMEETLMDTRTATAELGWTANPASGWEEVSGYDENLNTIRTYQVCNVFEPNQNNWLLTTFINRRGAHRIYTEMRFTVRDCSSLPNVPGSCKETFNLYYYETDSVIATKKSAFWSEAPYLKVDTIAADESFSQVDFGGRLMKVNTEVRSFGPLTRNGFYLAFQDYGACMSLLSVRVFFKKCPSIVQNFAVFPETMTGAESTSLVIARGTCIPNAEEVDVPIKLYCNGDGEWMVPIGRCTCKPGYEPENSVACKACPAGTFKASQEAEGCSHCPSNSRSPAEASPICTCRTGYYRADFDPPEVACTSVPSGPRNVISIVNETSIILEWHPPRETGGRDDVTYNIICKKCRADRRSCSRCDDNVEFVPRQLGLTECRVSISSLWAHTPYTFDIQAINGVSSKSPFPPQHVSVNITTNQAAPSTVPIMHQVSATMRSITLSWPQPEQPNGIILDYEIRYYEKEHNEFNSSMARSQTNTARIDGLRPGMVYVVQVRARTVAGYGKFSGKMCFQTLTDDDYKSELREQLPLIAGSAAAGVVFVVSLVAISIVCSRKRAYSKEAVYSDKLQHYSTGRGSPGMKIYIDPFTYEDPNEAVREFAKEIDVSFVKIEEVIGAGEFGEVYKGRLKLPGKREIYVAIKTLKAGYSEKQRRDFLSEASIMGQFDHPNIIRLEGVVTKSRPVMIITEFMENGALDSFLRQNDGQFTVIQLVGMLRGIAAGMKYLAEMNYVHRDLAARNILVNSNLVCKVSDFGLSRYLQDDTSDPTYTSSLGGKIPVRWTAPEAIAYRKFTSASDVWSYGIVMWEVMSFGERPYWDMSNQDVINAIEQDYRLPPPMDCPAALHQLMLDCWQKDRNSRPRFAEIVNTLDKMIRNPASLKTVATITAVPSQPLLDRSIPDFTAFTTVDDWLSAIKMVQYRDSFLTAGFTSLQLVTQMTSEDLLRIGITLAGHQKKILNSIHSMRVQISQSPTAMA

[7] = tested on: AncSZ; assay: as above
[8] = tested on: c-Abl (mouse); assay: as above
[9] = molecular target: EPHB2 (UniProt P29323); assay: as above
Sequence of EPHB2 (P29323 whole entry, looked up): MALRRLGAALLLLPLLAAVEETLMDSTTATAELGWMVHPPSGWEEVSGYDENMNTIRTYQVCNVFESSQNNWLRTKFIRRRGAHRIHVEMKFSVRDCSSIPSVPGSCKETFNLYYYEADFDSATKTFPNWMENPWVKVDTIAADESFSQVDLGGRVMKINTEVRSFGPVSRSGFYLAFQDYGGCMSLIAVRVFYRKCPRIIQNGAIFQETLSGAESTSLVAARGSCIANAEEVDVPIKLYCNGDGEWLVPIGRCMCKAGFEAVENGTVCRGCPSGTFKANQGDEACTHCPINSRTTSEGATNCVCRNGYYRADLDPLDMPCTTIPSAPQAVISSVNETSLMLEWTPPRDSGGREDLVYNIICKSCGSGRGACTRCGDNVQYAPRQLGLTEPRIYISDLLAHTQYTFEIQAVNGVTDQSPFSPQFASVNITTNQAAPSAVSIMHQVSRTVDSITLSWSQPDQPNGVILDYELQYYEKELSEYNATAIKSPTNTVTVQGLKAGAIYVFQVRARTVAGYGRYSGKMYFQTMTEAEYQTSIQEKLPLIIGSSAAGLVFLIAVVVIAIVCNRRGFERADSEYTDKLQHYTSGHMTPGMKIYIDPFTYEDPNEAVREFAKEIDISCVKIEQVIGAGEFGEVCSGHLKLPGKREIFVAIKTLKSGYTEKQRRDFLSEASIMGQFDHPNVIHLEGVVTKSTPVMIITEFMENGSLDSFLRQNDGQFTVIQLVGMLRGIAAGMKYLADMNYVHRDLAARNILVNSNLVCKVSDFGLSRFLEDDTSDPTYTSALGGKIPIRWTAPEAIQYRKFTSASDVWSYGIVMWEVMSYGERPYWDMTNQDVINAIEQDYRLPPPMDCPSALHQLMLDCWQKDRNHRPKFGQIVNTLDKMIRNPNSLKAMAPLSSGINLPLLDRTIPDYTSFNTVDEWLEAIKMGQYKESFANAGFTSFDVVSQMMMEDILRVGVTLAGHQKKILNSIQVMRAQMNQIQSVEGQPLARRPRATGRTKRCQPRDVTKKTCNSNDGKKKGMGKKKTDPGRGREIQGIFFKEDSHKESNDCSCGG

[10] = molecular target: MERTK (UniProt Q12866); assay: as above
Sequence of MERTK (Q12866 whole entry, looked up): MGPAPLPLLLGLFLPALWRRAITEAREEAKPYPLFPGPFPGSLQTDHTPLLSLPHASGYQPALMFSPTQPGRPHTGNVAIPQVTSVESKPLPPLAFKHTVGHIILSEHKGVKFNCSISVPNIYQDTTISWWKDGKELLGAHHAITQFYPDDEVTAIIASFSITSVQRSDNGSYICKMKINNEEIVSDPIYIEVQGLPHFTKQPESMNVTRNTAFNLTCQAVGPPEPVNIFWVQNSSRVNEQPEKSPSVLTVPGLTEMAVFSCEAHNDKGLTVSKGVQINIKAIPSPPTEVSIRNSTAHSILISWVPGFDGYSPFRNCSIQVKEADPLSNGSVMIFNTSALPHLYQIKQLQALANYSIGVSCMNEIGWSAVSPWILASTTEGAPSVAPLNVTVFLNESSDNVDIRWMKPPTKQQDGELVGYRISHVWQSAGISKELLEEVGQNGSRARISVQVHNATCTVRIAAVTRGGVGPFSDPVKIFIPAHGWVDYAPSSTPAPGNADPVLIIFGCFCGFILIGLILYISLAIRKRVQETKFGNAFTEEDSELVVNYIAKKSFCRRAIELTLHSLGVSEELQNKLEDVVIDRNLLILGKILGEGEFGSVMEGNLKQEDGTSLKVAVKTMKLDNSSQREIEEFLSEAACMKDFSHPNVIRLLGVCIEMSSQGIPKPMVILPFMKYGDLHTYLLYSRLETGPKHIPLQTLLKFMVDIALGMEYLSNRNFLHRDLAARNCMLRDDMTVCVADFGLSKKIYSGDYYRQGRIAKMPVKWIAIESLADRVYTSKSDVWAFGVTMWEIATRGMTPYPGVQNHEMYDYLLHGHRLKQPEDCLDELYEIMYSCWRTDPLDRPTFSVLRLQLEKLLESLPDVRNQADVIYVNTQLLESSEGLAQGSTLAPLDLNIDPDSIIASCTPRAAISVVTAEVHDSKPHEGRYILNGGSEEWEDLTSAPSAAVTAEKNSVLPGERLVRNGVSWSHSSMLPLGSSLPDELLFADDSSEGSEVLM

[11] = molecular target: FGFR3 (UniProt P22607); assay: as above
Sequence of FGFR3 (P22607 whole entry, looked up): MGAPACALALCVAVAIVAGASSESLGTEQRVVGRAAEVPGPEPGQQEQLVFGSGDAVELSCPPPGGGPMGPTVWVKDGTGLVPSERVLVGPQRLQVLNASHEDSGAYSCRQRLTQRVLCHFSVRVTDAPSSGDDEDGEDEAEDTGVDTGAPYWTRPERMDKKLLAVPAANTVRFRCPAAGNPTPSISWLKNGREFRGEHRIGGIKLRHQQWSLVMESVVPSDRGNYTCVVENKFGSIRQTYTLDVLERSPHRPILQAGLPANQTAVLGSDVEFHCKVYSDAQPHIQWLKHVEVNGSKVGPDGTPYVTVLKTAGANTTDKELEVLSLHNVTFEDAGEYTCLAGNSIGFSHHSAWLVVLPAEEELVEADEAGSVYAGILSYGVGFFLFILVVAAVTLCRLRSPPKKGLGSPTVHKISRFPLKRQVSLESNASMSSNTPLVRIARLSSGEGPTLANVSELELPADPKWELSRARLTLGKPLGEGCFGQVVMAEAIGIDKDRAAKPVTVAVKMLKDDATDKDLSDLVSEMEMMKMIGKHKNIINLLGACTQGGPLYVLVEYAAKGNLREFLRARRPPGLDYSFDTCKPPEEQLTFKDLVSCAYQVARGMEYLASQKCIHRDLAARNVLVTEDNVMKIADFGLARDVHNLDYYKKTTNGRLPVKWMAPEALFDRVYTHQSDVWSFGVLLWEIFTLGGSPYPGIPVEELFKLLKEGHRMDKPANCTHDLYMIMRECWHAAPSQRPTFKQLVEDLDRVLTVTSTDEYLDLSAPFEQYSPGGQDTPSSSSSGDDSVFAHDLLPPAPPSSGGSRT

[12] = molecular target: Fes (UniProt P07332); assay: as above
[13] = molecular target: Jak2 (UniProt O60674); assay: as above
[14] = molecular target: Hck (UniProt P08631); assay: as above
Sequence of Hck (P08631 whole entry, looked up): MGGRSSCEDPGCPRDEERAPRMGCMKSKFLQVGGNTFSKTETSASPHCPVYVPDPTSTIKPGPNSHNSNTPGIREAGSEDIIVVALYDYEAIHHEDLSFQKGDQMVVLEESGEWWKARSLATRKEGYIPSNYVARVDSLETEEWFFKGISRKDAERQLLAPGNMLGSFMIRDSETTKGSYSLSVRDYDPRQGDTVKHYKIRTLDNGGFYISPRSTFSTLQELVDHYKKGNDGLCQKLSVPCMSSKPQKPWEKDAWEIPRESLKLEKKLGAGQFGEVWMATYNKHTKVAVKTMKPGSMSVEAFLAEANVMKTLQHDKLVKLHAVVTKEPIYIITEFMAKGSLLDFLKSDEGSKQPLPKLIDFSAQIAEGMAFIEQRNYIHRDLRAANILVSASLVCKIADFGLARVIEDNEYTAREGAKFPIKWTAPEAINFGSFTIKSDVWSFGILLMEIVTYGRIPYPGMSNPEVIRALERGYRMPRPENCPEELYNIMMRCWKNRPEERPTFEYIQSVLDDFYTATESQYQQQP

[15] = tested on: Fer (mouse); assay: as above
[16] = tested on: c-Src; assay: as above
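Wherever SH2 binding enrichment of the phosphorylated peptide, bacterial display is given: peptide library displayed on the E. coli surface as eCPX fusions, selected cells deep-sequenced, score is each peptide's frequency after selection divided by its frequency in the input.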
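Wherever phosphorylation enrichment, bacterial display is given: 11-residue human phosphosite peptides and single-mutation variants displayed on the E. coli surface, counted by deep sequencing, each peptide's frequency after selection divided by its frequency in the unselected input library; frequency after pTyr selection over input frequency; kinase dosed for 20-30% of maximal phosphorylation in three min.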

Sequence | SH2 binding enrichment [1] | SH2 binding enrichment [2] | SH2 binding enrichment [3] | phosphorylation enrichment [4] | phosphorylation enrichment [5] | phosphorylation enrichment [6] | phosphorylation enrichment [7] | phosphorylation enrichment [8] | phosphorylation enrichment [9] | phosphorylation enrichment [10] | phosphorylation enrichment [11] | phosphorylation enrichment [12] | phosphorylation enrichment [13] | phosphorylation enrichment [14] | phosphorylation enrichment [15] | phosphorylation enrichment [16]
CTTILYNFMCN [TP53_Y234_H233L_YF] | 2.3 | 1.79 | 2.2 | 1.03 | 0.601 | 0.584 | 0.96 | 0.7 | 0.622 | 1.68 | 0.806 | 1.22 | 0.957 | 0.979 | 0.87 | 2.16
DAVCYYRMENA [NPHS2_Y195_I192V] | 0.676 | 0.548 | 0.648 | 1.34 | 7.53 | 0.622 | 1.9 | 0.956 | 0.588 | 1.82 | 6.2 | 1.1 | 6.76 | 1.37 | 0.704 | 3.44
DAVKHYMQFQK [CNGA2_Y395_R399Q] | 0.768 | 0.62 | 0.781 | 0.429 | 0.348 | 0.451 | 0.548 | 0.356 | 0.301 | 0.473 | 0.449 | 0.496 | 0.461 | 0.552 | 0.424 | 0.485
DCAAIYGNEPE [AKR1A1_Y50] | 0.966 | 0.72 | 0.689 | 1.02 | 0.588 | 0.612 | 1.27 | 0.799 | 0.694 | 0.806 | 0.734 | 1.22 | 1.42 | 0.897 | 0.672 | 1.42
DEFLEYRRIVG [FAM221A_Y20_YF] | 0.945 | 0.53 | 1 | 0.505 | 0.466 | 0.469 | 0.83 | 0.797 | 0.439 | 0.493 | 0.551 | 1.17 | 0.964 | 0.537 | 0.526 | 0.507
DFLEKYFKFGC [NNMT_Y24_S29C_YF] | 0.84 | 0.674 | 0.763 | 0.435 | 0.497 | 0.55 | 1.11 | 0.768 | 0.545 | 0.507 | 0.73 | 1.38 | 0.993 | 0.417 | 0.554 | 0.549
DGFTDYAEFAK [MCFD2_Y138_I136T_YF] | 0.823 | 0.547 | 0.864 | 0.974 | 0.654 | 0.88 | 1.24 | 0.811 | 0.741 | 0.542 | 0.752 | 1.31 | 1.34 | 0.954 | 0.477 | 1.11
DGQVNYEGFVQ [CALM1_Y139_E141G] | 0.659 | 0.586 | 0.467 | 0.512 | 0.496 | 1.31 | 0.996 | 1.19 | 1.01 | 0.453 | 0.724 | 1.07 | 1.04 | 0.553 | 0.793 | 0.603
DKATEYSQYMR [MAX_Y70_I71S] | 0.643 | 0.609 | 0.82 | 0.571 | 0.531 | 0.45 | 0.87 | 0.677 | 0.525 | 0.473 | 0.541 | 0.864 | 0.636 | 0.556 | 0.499 | 0.745
DLEKTYNTFRS [B4GALNT2_Y538_A533D_YF] | 0.846 | 0.506 | 0.629 | 0.967 | 0.431 | 0.445 | 0.656 | 0.523 | 0.319 | 0.291 | 0.55 | 0.851 | 0.736 | 0.734 | 0.391 | 1.75
DLTQDYEEWKR [ORC6_Y232] | 0.982 | 0.55 | 0.647 | 0.707 | 0.509 | 0.796 | 1.8 | 0.84 | 0.882 | 0.526 | 0.862 | 1.47 | 1.28 | 0.845 | 0.715 | 0.696
DMGAQYAAASR [ARID1B_Y483_P488R] | 0.761 | 0.612 | 0.553 | 0.37 | 0.357 | 0.371 | 0.575 | 0.644 | 0.375 | 0.31 | 0.396 | 0.54 | 0.49 | 0.402 | 0.393 | 0.365
DNEFAYLKAII [HNF4A_Y288_YF] | 0.775 | 0.429 | 0.491 | 0.386 | 0.425 | 0.45 | 1.13 | 0.689 | 0.455 | 0.334 | 0.648 | 1.07 | 0.91 | 0.407 | 0.381 | 0.419
DNPAKYFILEN [DPP10_Y512_S517N] | 0.659 | 0.828 | 0.636 | 0.459 | 0.557 | 0.59 | 1.03 | 0.935 | 0.456 | 0.509 | 0.617 | 1.2 | 1.41 | 0.392 | 0.531 | 0.495
DPFHVYIKNRV [KCNE3_Y95_YF] | 1.13 | 0.604 | 0.936 | 0.415 | 0.455 | 0.604 | 1.27 | 0.692 | 0.464 | 0.369 | 0.764 | 1.19 | 1.08 | 0.437 | 0.486 | 0.31
DSIRDYEDGTE [CLNS1A_Y214_M218T] | 0.829 | 0.577 | 0.67 | 0.602 | 0.511 | 0.784 | 1.55 | 1.02 | 0.565 | 0.959 | 0.988 | 1.58 | 1.35 | 0.57 | 0.766 | 1.1
DTLMEYLENPK [CYCS_Y68] | 0.915 | 0.502 | 0.872 | 0.484 | 0.511 | 0.672 | 1.51 | 0.95 | 0.682 | 0.529 | 0.905 | 1.49 | 1.28 | 0.69 | 0.677 | 0.562
DVLEFYNSKKT [PAK1_Y131] | 0.731 | 0.752 | 0.576 | 0.525 | 0.856 | 0.517 | 1.08 | 0.925 | 0.544 | 0.405 | 0.718 | 1.38 | 1.11 | 0.518 | 1.13 | 0.504

More lines, main results first:

SH2 binding enrichment [1] | SH2 binding enrichment [2] | SH2 binding enrichment [3] | Sequence | phosphorylation enrichment [4] | phosphorylation enrichment [5] | phosphorylation enrichment [6] | phosphorylation enrichment [7] | phosphorylation enrichment [8] | phosphorylation enrichment [9] | phosphorylation enrichment [10] | phosphorylation enrichment [11] | phosphorylation enrichment [12] | phosphorylation enrichment [13] | phosphorylation enrichment [14] | phosphorylation enrichment [15] | phosphorylation enrichment [16]
1.75 | 9.21 | 4.45 | CTTIHYNYICN [TP53_Y234_M237I] | 0.457 | 0.587 | 0.513 | 0.864 | 0.519 | 0.505 | 0.518 | 0.654 | 0.91 | 0.682 | 0.521 | 0.654 | 0.532
2.22 | 1.87 | 1.68 | CTTIQYNFMCN [TP53_Y234_H233Q_YF] | 0.494 | 0.586 | 0.499 | 0.969 | 0.593 | 0.49 | 0.438 | 0.689 | 1.01 | 0.853 | 0.611 | 0.485 | 0.5
1.53 | 2.26 | 1.64 | CTTLHYNFMCN [TP53_Y234_I232L_YF] | 0.391 | 0.567 | 0.361 | 0.718 | 0.545 | 0.406 | 0.424 | 0.534 | 0.78 | 0.758 | 0.395 | 0.708 | 0.538
1.27 | 3.48 | 1.79 | CTTTHYNFMCN [TP53_Y234_I232T_YF] | 0.437 | 0.403 | 0.397 | 0.758 | 0.484 | 0.427 | 0.393 | 0.557 | 0.758 | 0.561 | 0.469 | 0.466 | 0.375
0.951 | 10.6 | 3.73 | CTTTHYNYMCN [TP53_Y234_I232T] | 0.441 | 0.551 | 0.563 | 0.708 | 0.484 | 0.592 | 0.391 | 0.533 | 0.722 | 0.58 | 0.497 | 0.446 | 0.424
1.61 | 2.66 | 2.38 | CTTVHYNFMCN [TP53_Y234_I232V_YF] | 0.499 | 0.472 | 0.458 | 0.769 | 0.687 | 0.52 | 0.384 | 0.673 | 0.901 | 0.622 | 0.445 | 0.598 | 0.499
0.76 | 0.553 | 0.59 | DDYDLYGGEKF [PTPN11_Y66_Y62D] | 1.7 | 0.507 | 0.915 | 1.51 | 0.871 | 2.85 | 0.439 | 0.681 | 1.1 | 0.963 | 2.25 | 0.957 | 2.07
0.904 | 0.501 | 0.881 | DEDYLYREELA [POR_Y575] | 0.579 | 0.814 | 0.71 | 1.61 | 0.903 | 0.647 | 0.502 | 1.18 | 1.36 | 1.25 | 0.642 | 0.61 | 0.535
0.738 | 0.329 | 0.547 | DLDLTYIFPNI [PTEN_Y27_YF] | 6.27 | 3.31 | 2.03 | 4.58 | 1.17 | 1.15 | 3.52 | 2.77 | 1.34 | 2.57 | 1.76 | 0.56 | 3.89
0.876 | 0.813 | 0.814 | DLNATYRTIQG [U2SURP_Y634] | 0.646 | 0.583 | 0.578 | 0.631 | 0.641 | 0.751 | 0.473 | 0.6 | 0.846 | 0.609 | 0.688 | 0.518 | 0.674
0.825 | 0.448 | 0.561 | DLQDEYDFKCK [STAT1_Y170] | 0.543 | 0.668 | 0.598 | 1.28 | 0.877 | 0.702 | 0.538 | 0.772 | 1.31 | 1.19 | 0.766 | 0.555 | 0.546
1.05 | 0.583 | 0.637 | DSFWSYCNAVA [SLC20A2_Y436_S434W_YF] | 0.527 | 0.65 | 0.76 | 1.45 | 0.745 | 0.67 | 0.421 | 0.805 | 1.31 | 1.19 | 0.569 | 0.57 | 0.443
1.02 | 0.817 | 0.649 | DSYWSYCNAVA [SLC20A2_Y436_S434W] | 5.46 | 4.16 | 2.64 | 1.43 | 1.45 | 1.93 | 0.952 | 2.42 | 1.12 | 1.27 | 3.31 | 0.644 | 4.44
0.836 | 0.599 | 0.611 | DTERIYDDDFF [UBA1_Y560] | 0.748 | 0.605 | 0.661 | 1.36 | 1.01 | 0.62 | 0.702 | 0.876 | 1.41 | 1.63 | 0.668 | 0.995 | 0.736
0.93 | 0.909 | 0.578 | DTVRIYDDDFF [UBA1_Y560_E557V] | 0.555 | 0.602 | 0.777 | 1.28 | 0.726 | 0.626 | 0.592 | 0.642 | 1.24 | 1.27 | 0.538 | 0.619 | 0.522
